Test results: PMC3390797, “Regulation of ASIC channels by a stomatin/STOML3 complex located in a mobile vesicle pool in sensory neurons” (Open Biology, 2012)

B1: EYFP-tagged ASIC2a (natural protein, rat, UniProt Q62962-1 1-512, looked up)
chain: MDLKESPSEGSLQPSSIQIFANTSTLHGIRHIFVYGPLTIRRVLWAVAFVGSLGLLLVESSERVSYYFSYQHVTKVDEVVAQSLVFPAVTLCNLNGFRFSRLTTNDLYHAGELLALLDVNLQIPDPHLADPTVLEALRQKANFKHYKPKQFSMLEFLHRVGHDLKDMMLYCKFKGQECGHQDFTTVFTKYGKCYMFNSGEDGKPLLTTVKGGTGNGLEIMLDIQQDEYLPIWGETEETTFEAGVKVQIHSQSEPPFIQELGFGVAPGFQTFVATQEQRLTYLPPPWGECRSSEMGLDFFPVYSITACRIDCETRYIVENCNCRMVHMPGDAPFCTPEQHKECAEPALGLLAEKDSNYCLCRTPCNLTRYNKELSMVKIPSKTSAKYLEKKFNKSEKYISENILVLDIFFEALNYETIEQKKAYEVAALLGDIGGQMGLFIGASLLTILELFDYIYELIKEKLLDLLGKEEEEGSHDENMSTCDTMPNHSETISHTVNVPLQTALGTLEEIAC
notes: also called ASIC2a-YFP; source: CHO cells, transiently transfected, in live cells
B2: EYFP-tagged ASIC3 (natural protein, rat, UniProt O35240 1-533, looked up)
chain: MKPRSGLEEAQRRQASDIRVFASSCTMHGLGHIFGPGGLTLRRGLWATAVLLSLAAFLYQVAERVRYYGEFHHKTTLDERESHQLTFPAVTLCNINPLRRSRLTPNDLHWAGTALLGLDPAEHAAYLRALGQPPAPPGFMPSPTFDMAQLYARAGHSLEDMLLDCRYRGQPCGPENFTVIFTRMGQCYTFNSGAHGAELLTTPKGGAGNGLEIMLDVQQEEYLPIWKDMEETPFEVGIRVQIHSQDEPPAIDQLGFGAAPGHQTFVSCQQQQLSFLPPPWGDCNTASLDPDDFDPEPSDPLGSPRPRPSPPYSLIGCRLACESRYVARKCGCRMMHMPGNSPVCSPQQYKDCASPALDAMLRKDTCVCPNPCATTRYAKELSMVRIPSRASARYLARKYNRSESYITENVLVLDIFFEALNYEAVEQKAAYEVSELLGDIGGQMGLFIGASLLTILEILDYLCEVFQDRVLGYFWNRRSAQKRSGNTLLQEELNGHRTHVPHLSLGPRPPTTPCAVTKTLSASHRTCYLVTRL
notes: source: CHO cells, transiently transfected, in live cells
B3: EYFP-tagged ASIC2b (natural protein, rat, UniProt Q62962-2 1-563, looked up)
chain: MSRSGGARLPATALSGPGRFRMAREQPAPVAVAAARQPGGDRSGDPALQGPGVARRGRPSLSRTKLHGLRHMCAGRTAAGGSFQRRALWVLAFCTSLGLLLSWSSNRLLYWLSFPSHTRVHREWSRQLPFPAVTVCNNNPLRFPRLSKGDLYYAGHWLGLLLPNRTARPLVSELLRGDEPRRQWFRKLADFRLFLPPRHFEGISAAFMDRLGHQLEDMLLSCKYRGELCGPHNFSSVFTKYGKCYMFNSGEDGKPLLTTVKGGTGNGLEIMLDIQQDEYLPIWGETEETTFEAGVKVQIHSQSEPPFIQELGFGVAPGFQTFVATQEQRLTYLPPPWGECRSSEMGLDFFPVYSITACRIDCETRYIVENCNCRMVHMPGDAPFCTPEQHKECAEPALGLLAEKDSNYCLCRTPCNLTRYNKELSMVKIPSKTSAKYLEKKFNKSEKYISENILVLDIFFEALNYETIEQKKAYEVAALLGDIGGQMGLFIGASLLTILELFDYIYELIKEKLLDLLGKEEEEGSHDENMSTCDTMPNHSETISHTVNVPLQTALGTLEEIAC
notes: as for B2
B4: EYFP-tagged ASIC4 (natural protein, mouse, UniProt Q7TNS7 1-539, looked up)
chain: MPIEIVCKIKFAEEDAKPKEKEAGDEQSLLGAAQGPAAPRDLATFASTSTLHGLGRACGPGPHGLRRTLWALALLTSLAAFLYQAASLARGYLTRPHLVAMDPAAPAPVAGFPAVTLCNINRFRHSALSDADIFHLANLTGLPPKDRDGHRAAGLRYPEPDMVDILNRTGHQLADMLKSCNFSGHHCSASNFSVVYTRYGKCYTFNADPQSSLPSRAGGMGSGLEIMLDIQQEEYLPIWRETNETSFEAGIRVQIHSQEEPPYIHQLGFGVSPGFQTFVSCQEQRLTYLPQPWGNCRAESELREPELQGYSAYSVSACRLRCEKEAVLQRCHCRMVHMPGNETICPPNIYIECADHTLDSLGGGSEGPCFCPTPCNLTRYGKEISMVKIPNRGSARYLARKYNRNETYIRENFLVLDVFFEALTSEAMEQQAAYGLSALLGDLGGQMGLFIGASILTLLEILDYIYEVSWDRLKRVWRRPKTPLRTSTGGISTLGLQELKEQSPCPSRGRAEGGGASSLLPNHHHPHGPPGSLFEDFAC
notes: as for B2
B5: EYFP-tagged ASIC1a (natural protein, mouse, UniProt Q6NXK8-1 1-526, looked up)
chain: MELKTEEEEVGGVQPVSIQAFASSSTLHGLAHIFSYERLSLKRALWALCFLGSLAVLLCVCTERVQYYFCYHHVTKLDEVAASQLTFPAVTLCNLNEFRFSQVSKNDLYHAGELLALLNNRYEIPDTQMADEKQLEILQDKANFRSFKPKPFNMREFYDRAGHDIRDMLLSCHFRGEACSAEDFKVVFTRYGKCYTFNSGQDGRPRLKTMKGGTGNGLEIMLDIQQDEYLPVWGETDETSFEAGIKVQIHSQDEPPFIDQLGFGVAPGFQTFVSCQEQRLIYLPSPWGTCNAVTMDSDFFDSYSITACRIDCETRYLVENCNCRMVHMPGDAPYCTPEQYKECADPALDFLVEKDQEYCVCEMPCNLTRYGKELSMVKIPSKASAKYLAKKFNKSEQYIGENILVLDIFFEVLNYETIEQKKAYEIAGLLGDIGGQMGLFIGASILTVLELFDYAYEVIKHRLCRRGKCQKEAKRNSADKGVALSLDDVKRHNPCESLRGHPAGMTYAANILPHHPARGTFEDFTC
notes: as for B2
B6: EYFP-tagged ASIC1b (natural protein, mouse, UniProt Q6NXK8-2 1-559, looked up)
chain: MPIQIFCSVSFSSGEEAPGSMGDIWGPHHHHRQQQDSSESEEEEEKEKESGMELDEGDSPRDLVAFANSCTLHGASHVFVEGGPGPRQALWAVAFVIALGAFLCQVGDRVAYYLSYPHVTLLDEVATTELVFPAVTFCNTNAVRLSQLSYPDLLYLAPMLGLDESDDPGVPLAPPGPEAFSGEPFNLHRFYNRSCHRLEDMLLYCSYCGGPCGPHNFSVVFTRYGKCYTFNSGQDGRPRLKTMKGGTGNGLEIMLDIQQDEYLPVWGETDETSFEAGIKVQIHSQDEPPFIDQLGFGVAPGFQTFVSCQEQRLIYLPSPWGTCNAVTMDSDFFDSYSITACRIDCETRYLVENCNCRMVHMPGDAPYCTPEQYKECADPALDFLVEKDQEYCVCEMPCNLTRYGKELSMVKIPSKASAKYLAKKFNKSEQYIGENILVLDIFFEVLNYETIEQKKAYEIAGLLGDIGGQMGLFIGASILTVLELFDYAYEVIKHRLCRRGKCQKEAKRNSADKGVALSLDDVKRHNPCESLRGHPAGMTYAANILPHHPARGTFEDFTC
notes: as for B2

Biological target: T1, Strep-tagged STOML3-AmCyan1 (stomatin-like protein-3, wild type) (mouse, UniProt Q6PE84 1-287)
T1 construct: Stomatin-like protein-3 (STOML3), mouse; Made from the STOML3-EGFP plasmid 'described previously' by cloning into pAmCyan1-N1 with a Strep tag; also called STOML3-Strep; STOML3-CFP; source: CHO cells, transiently transfected; in lysate (co-IP) and in live cells (FRET)
T1 sequence (looked up): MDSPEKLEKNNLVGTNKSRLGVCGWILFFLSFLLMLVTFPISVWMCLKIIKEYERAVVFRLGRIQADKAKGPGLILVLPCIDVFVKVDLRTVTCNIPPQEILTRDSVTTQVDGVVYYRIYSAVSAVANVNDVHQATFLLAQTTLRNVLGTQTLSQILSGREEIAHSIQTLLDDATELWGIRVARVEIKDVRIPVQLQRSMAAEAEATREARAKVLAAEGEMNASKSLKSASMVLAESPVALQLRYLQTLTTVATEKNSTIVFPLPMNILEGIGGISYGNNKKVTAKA
Assay: FRET or BRET; three-cube FRET imaging of CHO cells co-expressing the AmCyan1 (CFP) and EYFP fusions; apparent FRET efficiency, calibrated with two fluorophore-tandem constructs
Settings: partners not purified

Row | Binder | apparent FRET efficiency (mean, cell-averaged) [%]
1 | B1 | 13.4 ± 0.52
2 | B2 | 15.5 ± 0.67
3 | B3 | 13.1 ± 0.49
4 | B4 | 15.4 ± 0.65
5 | B5 | 14.4 ± 0.51
6 | B6 | 13.9 ± 0.73
